Tested on: Arabidopsis thaliana T1 plants
Assay: Topramezone tolerance of transgenic Arabidopsis thaliana T1 plants (pesticide damage grade by bleached leaf area, score, resistance evaluation)
Format: in vivo
Conditions: HPPD F372G mutants, Table 6
Summary of the method: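 Herbicide tolerance was judged per plant on a bleaching scale (grade 0 no bleaching to grade 3 fully bleached) 7 DAT. Topramezone doses were 0, 25, 50 and 100 g ai/ha on 18-day-old T1 and wild-type plants.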

B1: OsHPPDm-F372G: Oryza sativa HPPD mutant F372G, SEQ ID NO: 311 (protein)
chain: MPPTPTPTATTGAVSAAAAAGENAGFRLVGHRRFVRANPRSDRFQALAFHHVELWCADAASAAGRFAFALGAPLAARSDLSTGNSAHASLLLRSASVAFLFTAPYGGDHGVGADAATTASIPSFSPGAARRFAADHGLAVHAVALRVADAADAFRASVAAGARPAFQPADLGGGFGLAEVELYGDVVLRFVSHPDGADAPFLPGFEGVSNPGAVDYGLRRFDHVVGNVPELAPVAAYISGFTGFHEFAEFTAEDVGTAESGLNSVVLANNAETVLLPLNEPVHGTKRRSQIQTYLDHHGGPGVQHIALASDDVLGTLREMRARSAMGGFEFLAPPPPNYYDGVRRRAGDVLSEEQINECQELGVLVDRDDQGVLLQIGTKPVGDRPTFFLEMIQRIGCMEKDESGQEYQKGGCGGFGKGNFSELFKSIEEYEKSLEAKQAPTVQGS
modifications: OsHPPDm-F372G Amino Acid Sequence
- Resistance evaluation (topramezone 25 g ai/ha (1x)): Moderately resistant
- Resistance evaluation (topramezone 100 g ai/ha (4x)): Non-resistant

B2: AtHPPDm-F372G: Arabidopsis thaliana HPPD mutant F372G, SEQ ID NO: 297 (protein)
chain: MGHQNAAVSENQNHDDGAASSPGFKLVGFSKFVRKNPKSDKFKVKRFHHIEFWCGDATNVARRFSWGLGMRFSAKSDLSTGNMVHASYLLTSGDLRFLFTAPYSPSLSAGEIKPTTTASIPSFDHGSCRSFFSSHGLGVRAVAIEVEDAESAFSISVANGAIPSSPPIVLNEAVTIAEVKLYGDVVLRYVSYKAEDTEKSEFLPGFERVEDASSFPLDYGIRRLDHAVGNVPELGPALTYVAGFTGFHQFAEFTADDVGTAESGLNSAVLASNDEMVLLPINEPVHGTKRKSQIQTYLEHNEGAGLQHLALMSEDIFRTLREMRKRSSIGGFDFMPSPPPTYYQNLKKRVGDVLSDDQIKECEELGILVDRDDQGTLLQIGTKPLGDRPTIFIEIIQRVGCMMKDEEGKAYQSGGCGGFGKGNFSELFKSIEEYEKTLEAKQLVG
modifications: AtHPPDm-F372G Amino Acid Sequence
- Resistance evaluation (topramezone 25 g ai/ha (1x)): Poorly resistant
- Resistance evaluation (topramezone 100 g ai/ha (4x)): Non-resistant

B3: GmHPPDm-F372G: Glycine max HPPD mutant F372G, SEQ ID NO: 313 (protein)
chain: MPMYTPSLSAPSSNHIQPSVTLPLYITTTKLNLKQQHHTTPMPIPMCNEIQAQAQAQAQPGFKLVGFKNFVRTNPKSDRFQVNRFHHIEFWCTDATNASRRFSWGLGMPIVAKSDLSTGNQIHASYLLRSGDLSFLFSAPYSPSLSAGSSAASSASIPSFDAATCLAFAAKHGFGVRAIALEVADAEAAFSASVAKGAEPASPPVLVDDRTGFAEVRLYGDVVLRYVSYKDAAPQAPHADPSRWFLPGFEAAASSSSFPELDYGIRRLDHAVGNVPELAPAVRYLKGFSGFHEFAEFTAEDVGTSESGLNSVVLANNSETVLLPLNEPVYGTKRKSQIETYLEHNEGAGVQHLALVTHDIFTTLREMRKRSFLGGFEFMPSPPPTYYANLHNRAADVLTVDQIKQCEELGILVDRDDQGTLLQIGTKPVGDRPTIFIEIIQRIGCMVEDEEGKVYQKGACGGFGKGNFSELFKSIEEYEKTLEAKRTA
modifications: GmHPPDm-F372G Amino Acid Sequence
- Resistance evaluation (topramezone 25 g ai/ha (1x)): Poorly resistant
- Resistance evaluation (topramezone 100 g ai/ha (4x)): Non-resistant

B4: CaHPPDm-F372G: Cicer arietinum HPPD mutant F372G, SEQ ID NO: 315 (protein)
chain: MGTIETQTGFKLVGFNNFVRTNPKSDRFKVKRFHHVEFWCPDATNTARRFSWGLGMPIVAKSDLSTGNQTHASYLLRSGDLNFLFTAAYSPSISLSAPHPTASIPSFSAPTSFAFSASHGLGVRAVAIEVDDAEFAYTTSVNHGAIPSSPPVVLDNRVKLAEVQLYGDVVLRYVSYNDPIETSNPNPNHWFLPGFEPVEETSSNQSIDFGIQRLDHAVGNVPELSSALNYVKQFTGFHEFAEFTAEDVGTSESGLNSTVLANNEETVLLPMNEPVYGTKRKSQIQTYLEHNEGAGLQHLALMSNDIFKTLREMRKRSGIGGFEFMPSPPPTYYSNLKKRVGDVLNDEQIKECEELGILVDKDDQGTLLQIGTKPVGDRPTIFIEIIQRVGCMLKDDEGKEYQKGGCGGFGKGNFSELFKSIEEYEKTLEIKRTA
modifications: CaHPPDm-F372G Amino Acid Sequence
- Resistance evaluation (topramezone 25 g ai/ha (1x)): Poorly resistant
- Resistance evaluation (topramezone 100 g ai/ha (4x)): Non-resistant

B5: BnHPPDm-F372G: Brassica napus HPPD mutant F372G, SEQ ID NO: 317 (protein)
chain: MGHENAAVCETQQHDDAASPGFKLVGFSKFVRKNPKSDKFKVKRFHHIEFWCGDATNVSRRFSWGLGMRFSAKSDLSTGNMVHASYLLTSGDLRFLFTAPYSPSLSAGEAQPSATASIPSFDHASCRSFFSSHGLGVRAVAIEVEDAESAFSISVANGAVPSSPPNVLNGAVTIAEVKLYGDVVLRYVSYYNGTVSFLPGFESVDDTSSFPLDYGIRRLDHAVGNVPELGPALTYLAGFTGFHQFAEFTADDVGTAESGLNSAVLANNDEMVLLPINEPVHGTKRKSQIQTFLEHNEGAGLQHLALMSEDIFRTLREMRKRSGVGGFDFMPSPPPTYYKNLKKRVGDVLSEEQIEECEELGILVDRDDQGTLLQIGTKPLGDRPTIFIEIIQRVGCMKRDEEGKVYQSGGCGGFGKGNFSELFKSIEEYEKTLEAKQLVG
modifications: BnHPPDm-F372G Amino Acid Sequence
- Resistance evaluation (topramezone 25 g ai/ha (1x)): Poorly resistant
- Resistance evaluation (topramezone 100 g ai/ha (4x)): Non-resistant

B6: HaHPPDm-F372G: Helianthus annuus HPPD mutant F372G, SEQ ID NO: 319 (protein)
chain: MGTEATVAAVVAGDESDHPTSAFKLVGFKNFIRTNPMSDKFTVKNFHHIEFWCSDATNTARRFSWGLGMPIIFKSDLSTGNSTHASYLLRSGHLNFLFTAPYSPSISPTTTTASIPTFSHSASRHFTATHGLAVRAIAVEVEDAETAFAVSVANGAKPSSPPVTLGHNDVVLSEVKLYGDVVLRYVSYKNNTNNNNNNDNDNYIFLPGFEAMDKTSSFQELDYGIRRLDHAVGNVPELAPAVDYVKSFTGFHEFAEFTAEDVGTSESGLNSVVLACNSEMVLIPMNEPVYGTKRKSQIQTYLEHNEGAGVQHLALASEDIFRTLREMRKRSGVGGFEFMPSPPPTYYRNLKSRAGDVLSDEQIKECEELGILVDRDDQGTLLQIGTKPVGDRPTIFIEIIQRVGCMVKDDEGKVQQKAGCGGFGKGNFSELFKSIEEYEKTLEARSTTAA
modifications: HaHPPDm-F372G Amino Acid Sequence
- Resistance evaluation (topramezone 25 g ai/ha (1x)): Poorly resistant
- Resistance evaluation (topramezone 100 g ai/ha (4x)): Non-resistant

B7: MsHPPDm-F372G: Medicago sativa HPPD mutant F372G, SEQ ID NO: 321 (protein)
chain: MAIETETQTQTGFKLVGFKNFVRANPKSDRFKVKRFHHVEFWCTDATNTARRFSHGLGMPIVAKSDLSTGNQTHASYLLRSGDLNFLFSAAYSPSISLSSPSSTAAIPTFSASNCFSFSASHGLAVRAVAVEVEDAELAFTTSVNNGAIPSSPPVILENHVKLAEVRLYGDVVLRYVSYNDPNPNQNPNLLFLPGFERVSDESSNSSLDFGIRRLDHAVGNVPELSSAVKYVKDFTGFHEFAEFTAEDVGTSESGLNSVVLANNEETVLLPMNEPVYGTKRKSQIETYLEHNEGAGLQHLALKSEDIFRTLREMRKRSGVGGFEFMPSPPVTYYRNLKNRVGDVLSDEQIKECEELGILVDRDDQGTLLQIGTKPIGDRPTIFIEIIQRVGCMLKDEEGKEYQKGGCGGFGKGNFSELFKSIEEYEKTLETRRTA
modifications: MsHPPDm-F372G Amino Acid Sequence
- Resistance evaluation (topramezone 25 g ai/ha (1x)): Moderately resistant
- Resistance evaluation (topramezone 100 g ai/ha (4x)): Non-resistant
